Results taken from patent US20190161551A1 (Regeneron, published 2019).

B1: H1M8037C (antibody, mouse IgG1, kappa, V domains shown)
VH: QVQLVQSGAEVKKPGASVKVSCKASGYTFTNYDIIWVRQAPGQGLEWMGYINPYNDGTKYNEKFKGRVTMTRDTSTSTVYMELSSLRSEDTAVYYCARLLKYRRFRYYAIDYWGQGTTVTVSS
VL: DIQMTQSPSSLSASVGDRVTITCRTSENVYSNLAWYQQKPGKAPKLLIYAASNLQSGVPSRFSGSGSGTDYTFTISSLQPEDIATYYCQHFWGSPFTFGQGTKLEIKR
notes: captured by anti-mFc in SPR; also called Comparator; comparator anti-TrkB monoclonal antibody
B2: H4H9816P2 (antibody, human IgG4 S228P, kappa, V domains shown)
VH: EVQLVESGGGLVQPGGSLTLSCAASGFNFRDYEMIWVRQTPGKGLEWISYISNSGYTIYYADSVKGRFTISRDNARNSIYLQVNSLRAEDTAVYYCSRRTTMIRGIRAYYYYGLDVWGQGTTVTVSS
VL: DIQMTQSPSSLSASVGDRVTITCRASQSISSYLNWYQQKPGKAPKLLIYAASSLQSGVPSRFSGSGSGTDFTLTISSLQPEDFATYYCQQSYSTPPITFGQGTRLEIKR
notes: Fully human anti-human TrkB agonist antibody, human IgG4 Fc; also called H4H9816P-L1
B3: H4H9780P (antibody, human IgG4 S228P, kappa, V domains shown)
VH: QVQLVESGGGVVQPGRSLRLSCAASGFSFSSFGMHWVRQAPGKGLEWVSVISYDGINTYYTDSVKGRFTISRDNSKNTLYLQMNGLRAEDTALYYCVQGSIGTVFEYWGQGTLVTVSS
VL: DIQMTQSPSSLSASVGDRVTITCRASQGISNYLAWYQQKPGKVPKLLIYAASTLQSGVPSRFGGSGSGTDFTLTISSLQPEDVATYYCQKYTSAPFTFGPGTKVDIKR
notes: Fully human anti-human TrkB agonist antibody, human IgG4 Fc; also called H4H9780P-L1
B4: H4H9814P (antibody, human IgG4 S228P, kappa, V domains shown)
VH: EVQLVESGGGLVQPGGSLKLSCTASGFTFSGSVIHWVRQASGKGLEWIGRIRNKANSYATAYGASVTGRFTISRDDSKNTAYLQMNSLKTEDTAVYYCTFPGVVGRGGFDYWGQGTLVTVSS
VL: DIVMTQSPDSLAVSLGEGATINCMSSQSVLFSSNNKNYLAWYQQKPGQPPKLLFYWASTRESGVPDRFGGSGSGTDFSLTINSLQTEDVAVYYCLQYYSIPWTFGQGTKVEIKR
notes: Fully human anti-human TrkB agonist antibody, human IgG4 Fc; also called H4H9814P-L1
B5: M2aM14173N (antibody, mouse IgG2a, kappa, V domains shown)
VH: NVSLVESGGGSVKPGGSLQLSCAASGFTFSSSAMSWIRQTPEMRLEWVATISDRGSYTYYPDSVEGRFTISRDNAKNILYLQMSHLMSEDTAMYYCARGKGEKAYYTAFFAYWGQGSLVTVSA
VL: DIQMTQSPASLSASVGETVTITCRASENIYSYLAWYQQKPGKSPHLLVHNAETLAEGVPSRFSGSGSGPQFSLKINSLQPGDSGTYYCQHHYSSPWTFGGGTKLEIKR
notes: Anti-mouse TrkB antibody from hybridoma, mouse IgG2a Fc; also called surrogate anti-mouse TrkB antibody
B6: M2aM14179N (antibody, mouse IgG2a, kappa, V domains shown)
VH: EVQLQQSGPELVKPGASVKISCKASGYTLTDYYMNWVKQSHGKSLEWIGDINPNNGGTSYNQKFKGKATLTVDKSSSTAYMELRSLTSEDSAVYYCARGAYYSNYFDYWGQGTTLTVSS
VL: DIVMSQSPSSLAVSAGEKVTMSCKSSQSLLNSRTRKNYLAWYQQKPGQSPKLLIYWASTRESGVPDRFTGSGSGTDFTLTISSVQAEDLAVYYCKQSYILFTFGSGTQLEIKR
notes: as for B5

What follows are binders tested against mouse TrkB extracellular domain fused to the transmembrane and cytoplasmic domains of human TrkB, expressed … (mouse; human, UniProt Q16620 431-822, limits assumed) (assay: cell-based or functional assay).
mouse TrkB extracellular domain fused to the transmembrane and cytoplasmic domains of human TrkB, expressed …, sequence (Q16620 other isoform, or with tags, fused parts or gaps limits assumed, form in doubt): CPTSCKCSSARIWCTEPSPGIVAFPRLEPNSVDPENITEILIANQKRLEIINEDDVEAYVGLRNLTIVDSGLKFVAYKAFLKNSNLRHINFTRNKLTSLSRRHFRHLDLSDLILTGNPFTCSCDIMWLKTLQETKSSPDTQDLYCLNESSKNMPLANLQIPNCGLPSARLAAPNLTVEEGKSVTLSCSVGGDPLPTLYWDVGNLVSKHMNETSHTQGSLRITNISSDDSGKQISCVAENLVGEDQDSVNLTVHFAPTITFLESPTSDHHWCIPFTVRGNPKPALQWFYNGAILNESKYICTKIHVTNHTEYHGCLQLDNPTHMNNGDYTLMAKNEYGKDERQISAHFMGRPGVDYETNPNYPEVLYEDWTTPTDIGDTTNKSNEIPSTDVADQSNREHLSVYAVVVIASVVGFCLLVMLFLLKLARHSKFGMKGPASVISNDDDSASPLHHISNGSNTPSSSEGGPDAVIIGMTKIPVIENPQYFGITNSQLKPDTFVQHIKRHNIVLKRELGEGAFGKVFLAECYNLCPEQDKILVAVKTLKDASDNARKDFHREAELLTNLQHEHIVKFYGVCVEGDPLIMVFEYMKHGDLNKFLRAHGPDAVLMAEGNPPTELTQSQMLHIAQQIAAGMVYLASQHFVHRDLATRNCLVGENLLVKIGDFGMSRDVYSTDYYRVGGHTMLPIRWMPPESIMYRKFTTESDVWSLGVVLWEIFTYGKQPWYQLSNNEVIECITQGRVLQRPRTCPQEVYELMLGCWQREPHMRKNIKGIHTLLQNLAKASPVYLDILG

Row | Activation (%), SRE-luciferase, 100 pM BDNF | Activation (%), SRE-luciferase, No BDNF | EC50 (M), SRE-luciferase, 100 pM BDNF | EC50 (M), SRE-luciferase, No BDNF | Binder
1 | 69% | 85% | 4.2e-11 M | 4.3e-11 M | B1
2 | 58% | 0% |  |  | B2
3 | 55% | 0% |  |  | B3
4 | 54% | 0% |  |  | B4

The binders below were run against human TrkB expressed on HEK293/SRE-Luc/hTrkB cells (human, UniProt Q16620 32-822) (assay: cell-based or functional assay).
human TrkB expressed on HEK293/SRE-Luc/hTrkB cells, sequence (Q16620 32-822): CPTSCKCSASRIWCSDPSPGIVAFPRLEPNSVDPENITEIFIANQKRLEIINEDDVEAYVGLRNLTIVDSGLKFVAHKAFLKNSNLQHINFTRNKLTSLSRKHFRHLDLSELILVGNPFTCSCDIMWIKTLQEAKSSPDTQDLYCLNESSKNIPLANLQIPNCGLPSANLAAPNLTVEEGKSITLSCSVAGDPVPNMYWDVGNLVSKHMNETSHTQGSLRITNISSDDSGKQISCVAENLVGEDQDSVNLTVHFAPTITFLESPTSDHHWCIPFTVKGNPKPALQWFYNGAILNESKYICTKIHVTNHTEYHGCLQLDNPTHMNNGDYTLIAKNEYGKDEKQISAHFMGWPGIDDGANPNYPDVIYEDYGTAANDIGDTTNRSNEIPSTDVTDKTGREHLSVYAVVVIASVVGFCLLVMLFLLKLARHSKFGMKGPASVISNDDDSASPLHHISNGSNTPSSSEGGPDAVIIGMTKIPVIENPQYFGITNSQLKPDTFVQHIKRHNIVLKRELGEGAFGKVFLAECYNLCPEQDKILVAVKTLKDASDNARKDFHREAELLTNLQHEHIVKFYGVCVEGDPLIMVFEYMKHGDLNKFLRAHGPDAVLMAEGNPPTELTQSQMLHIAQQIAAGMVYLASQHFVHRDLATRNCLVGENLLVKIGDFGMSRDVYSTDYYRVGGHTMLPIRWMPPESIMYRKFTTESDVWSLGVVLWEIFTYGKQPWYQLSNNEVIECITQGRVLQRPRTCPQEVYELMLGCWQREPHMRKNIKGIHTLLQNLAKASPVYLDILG

Row | Activation (%), SRE-luciferase, 100 pM BDNF | Activation (%), SRE-luciferase, No BDNF | EC50 (M), SRE-luciferase, 100 pM BDNF | EC50 (M), SRE-luciferase, No BDNF | Binder
5 | 79% | 78% | 1.1e-10 M | 7.6e-11 M | B1
6 | 78% | 90% | 4.5e-11 M | 6.3e-11 M | B2
7 | 77% | 88% | 7.6e-11 M | 8.2e-11 M | B3
8 | 80% | 92% | 4.9e-11 M | 3.5e-11 M | B4

These binders were tested against T1, human TrkB extracellular domain (aa Cys32-His430) expressed with the Fc portion of human IgG1 at the … (human) (assay: competition ELISA, 500 pM hTrkB-hFc pre-mixed with mAb, plate-coated hBDNF).
T1 construct: also called hTrkB-hFc; hTrkB.hFc
Experimental: (§1) Experiments were carried out using the following procedure. Human BDNF or NT-4 were separately coated at a concentration of 0.5 μg/mL or 2 μg/mL, respectively, in PBS on a 96-well microtiter plate overnight at 4° C. […] Blocking solution and dilution buffer contained 5% (w/v) solution of BSA in PBS for assay with BDNF coat, or 0.5% (w/v) solution of BSA in PBS for assay with NT-4 coat. On separate microtiter plates, a constant amount of 500 pM of hTrkB-hFc protein was added to serial dilutions of antibodies with final concentrations ranging from 1.7 pM to 100 nM, and solutions with no antibody present. (The constant concentration of hTrkB-hFc for antibody inhibition assays was selected from the approximate midway point within the linear portion of individual binding curves of hTrkB-hFc to plate-coated hBDNF or hNT-4). After one hour incubation at room temperature, antibody-protein complexes with 500 pM constant concentration of hTrkB-hFc protein were transferred to microtiter plates coated with hBDNF or hNT-4. After one hour incubation at room temperature, the wells were washed, and plate-bound hTrkB-hFc was detected with anti-human Fcγ fragment specific goat polyclonal antibodies conjugated with horseradish peroxidase (JacksonImmunoResearch). The plate was then developed using TMB substrate solution (BD Biosciences) according to manufacturer's recommendation and absorbance at 450 nm was measured on a Victor plate reader (PerkinElmer™).
(§2) The ability of anti-TrkB antibodies to block TrkB binding to BDNF or NT-4 was assessed using two competition sandwich ELISAs. Human TrkB-hFc binding to hBDNF or hNT-4 coated on 96-well microtiter plates, in the presence of serially diluted antibodies or no antibody controls, were detected with HRP-conjugated anti-human Fcγ fragment specific goat polyclonal antibodies. IC₅₀ values were calculated and used as the potency indicator of antibody blocking hTrkB-hFc binding to hBDNF or hNT-4. In addition, the maximum blockade of 500 pM hTrkB-hFc with each antibody at the highest tested concentration was calculated and compared.

T1 sequence (chain, as listed by the source limits assumed): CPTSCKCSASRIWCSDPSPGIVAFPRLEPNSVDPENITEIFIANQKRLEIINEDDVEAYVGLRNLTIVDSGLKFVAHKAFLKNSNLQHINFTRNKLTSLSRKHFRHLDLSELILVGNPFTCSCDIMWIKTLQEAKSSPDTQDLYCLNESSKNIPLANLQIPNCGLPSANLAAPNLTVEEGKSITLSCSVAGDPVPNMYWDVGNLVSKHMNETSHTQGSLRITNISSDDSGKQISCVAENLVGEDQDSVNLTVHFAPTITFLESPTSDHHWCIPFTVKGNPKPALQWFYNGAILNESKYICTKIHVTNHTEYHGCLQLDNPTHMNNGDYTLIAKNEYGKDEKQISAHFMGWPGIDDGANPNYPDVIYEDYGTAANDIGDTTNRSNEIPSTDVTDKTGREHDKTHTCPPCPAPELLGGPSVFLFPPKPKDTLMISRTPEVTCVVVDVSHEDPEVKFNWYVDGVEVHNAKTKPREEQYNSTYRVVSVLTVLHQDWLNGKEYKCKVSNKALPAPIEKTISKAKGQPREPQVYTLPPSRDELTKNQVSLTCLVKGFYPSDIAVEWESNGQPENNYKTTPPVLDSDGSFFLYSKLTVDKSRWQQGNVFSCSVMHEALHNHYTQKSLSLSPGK

Row | % Blockade with 100 nM antibody | IC50 | Binder
9 | 97% | 0.17 nM | B1
10 | -56% |  | B2
11 | 93% | 0.15 nM | B3
12 | 6% |  | B4

Each binder was assayed against T2, human TrkB extracellular domain expressed with a C-terminal mouse IgG2a Fc tag (human) (assay: BLI Octet, captured hTrkB.mFc, 300 nM mAb (hNT-4 run)).
T2 construct: also called hTrkB-mFc; hTrkB.mFc
Experimental: (§3) Blocking of anti-human TrkB or anti-mouse TrkB antibodies from binding to TrkB by BDNF or NT-4 was evaluated using a real-time bio-layer interferometry (BLI) based Octet HTX instrument. The entire study was performed in 10 mM HEPES pH 7.4, 300 mM NaCl, 3 mM EDTA, 1 mg/mL BSA, 0.02% NaN3 and 0.05% v/v Surfactant Tween-20 (HBS-EBT running buffer) at 25° C. All the samples were dispensed in a 384 tilted well plate and the plate was placed on the orbital shaker with the shake speed of 1000 rpm. hTrkB.mFc was captured on anti-mFc (AMC) Octet sensors while hTrkB.hFc or mTrkB.hFc were captured on anti-hFc (AHC) Octet sensors by dipping in wells containing 10 μg/mL of TrkB reagents for 2 minutes. hTrkB.mFc or hTrkB.hFc captured Octet biosensors were saturated by dipping in wells containing 20 nM of BDNF, hNT-4, or mNT-4 for 2 minutes followed by dipping Octet biosensors in wells containing 300 nM of different TrkB mAbs for 4 minutes. Binding of TrkB mAbs to the complex of TrkB and BDNF, hNT-4, or mNT-4 was determined using Scrubber 2.0c analysis software.

T2 sequence (chain, as listed by the source limits assumed): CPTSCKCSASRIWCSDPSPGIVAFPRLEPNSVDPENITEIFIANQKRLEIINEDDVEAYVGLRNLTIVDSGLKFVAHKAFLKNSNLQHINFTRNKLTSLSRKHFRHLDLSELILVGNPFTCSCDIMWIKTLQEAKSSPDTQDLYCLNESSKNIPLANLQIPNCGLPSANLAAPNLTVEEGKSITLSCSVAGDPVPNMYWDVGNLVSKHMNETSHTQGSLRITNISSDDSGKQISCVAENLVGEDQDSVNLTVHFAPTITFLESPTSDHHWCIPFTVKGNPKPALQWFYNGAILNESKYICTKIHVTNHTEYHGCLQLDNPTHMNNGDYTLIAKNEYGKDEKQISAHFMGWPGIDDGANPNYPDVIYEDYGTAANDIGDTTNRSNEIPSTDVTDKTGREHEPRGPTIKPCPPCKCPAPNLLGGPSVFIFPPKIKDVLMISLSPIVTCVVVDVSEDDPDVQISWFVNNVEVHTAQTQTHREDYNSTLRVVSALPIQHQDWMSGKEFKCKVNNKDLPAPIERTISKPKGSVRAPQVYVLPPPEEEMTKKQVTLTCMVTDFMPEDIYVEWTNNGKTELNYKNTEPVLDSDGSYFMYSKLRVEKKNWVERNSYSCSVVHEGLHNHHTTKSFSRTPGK

Row | mAb Binding (nm) | Binder
13 | 0.18 nm | B2
14 | 0.18 nm | B3
15 | 0.18 nm | B4

Each binder was assayed against T1, human TrkB extracellular domain (aa …) (assay: competition ELISA, 500 pM hTrkB-hFc pre-mixed with mAb, plate-coated hNT-4).
Experimental: as §1, §2

Row | % Blockade with 100 nM antibody | IC50 | Binder
16 | 95% | 0.045 nM | B1
17 | -123% |  | B2
18 | 80% | 0.18 nM | B3
19 | 38% |  | B4

Each binder was assayed against T2, human TrkB extracellular domain … (assay: BLI Octet, captured hTrkB.mFc, 300 nM mAb, no ligand).
Experimental: as §3

Row | antibody Binding (nm) | Binder
20 | 0.19 nm | B2
21 | 0.18 nm | B3
22 | 0.18 nm | B4

These binders were tested against T3, mouse TrkB.hFc (mouse) (assay: BLI Octet, captured mTrkB.hFc, 300 nM mAb (NT-4 run)).
T3 construct: also called mTrkB.hFc; mTrkB-hFc
Experimental: Blocking of BDNF or NT-4 from binding to TrkB by anti-human TrkB or anti-mouse TrkB antibodies was evaluated using a real-time bio-layer interferometry (BLI) based Octet HTX instrument. The entire study was performed in 10 mM HEPES pH 7.4, 300 mM NaCl, 3 mM EDTA, 1 mg/mL BSA, 0.02% NaN3 and 0.05% v/v Surfactant Tween-20 (HBS-EBT running buffer) at 25° C. All the samples were dispensed in a 384 tilted well plate and the plate was placed on the orbital shaker with the shake speed of 1000 rpm. hTrkB.mFc was captured on anti-mFc (AMC) Octet sensors while hTrkB.hFc or mTrkB.hFc were captured on anti-hFc (AHC) Octet sensors by dipping in wells containing 10 μg/mL of TrkB reagents for 2 minutes. hTrkB.mFc or hTrkB.hFc captured Octet biosensors were saturated by dipping in wells containing 300 nM of different TrkB mAbs for 4 minutes followed by dipping Octet biosensors in wells containing 20 nM of BDNF, hNT-4, or mNT-4 for 2 minutes. Binding of BDNF, hNT-4, or mNT-4 to the complex of TrkB and different TrkB mAbs was determined using Scrubber 2.0c analysis software.

T3 sequence (chain, as listed by the source limits assumed): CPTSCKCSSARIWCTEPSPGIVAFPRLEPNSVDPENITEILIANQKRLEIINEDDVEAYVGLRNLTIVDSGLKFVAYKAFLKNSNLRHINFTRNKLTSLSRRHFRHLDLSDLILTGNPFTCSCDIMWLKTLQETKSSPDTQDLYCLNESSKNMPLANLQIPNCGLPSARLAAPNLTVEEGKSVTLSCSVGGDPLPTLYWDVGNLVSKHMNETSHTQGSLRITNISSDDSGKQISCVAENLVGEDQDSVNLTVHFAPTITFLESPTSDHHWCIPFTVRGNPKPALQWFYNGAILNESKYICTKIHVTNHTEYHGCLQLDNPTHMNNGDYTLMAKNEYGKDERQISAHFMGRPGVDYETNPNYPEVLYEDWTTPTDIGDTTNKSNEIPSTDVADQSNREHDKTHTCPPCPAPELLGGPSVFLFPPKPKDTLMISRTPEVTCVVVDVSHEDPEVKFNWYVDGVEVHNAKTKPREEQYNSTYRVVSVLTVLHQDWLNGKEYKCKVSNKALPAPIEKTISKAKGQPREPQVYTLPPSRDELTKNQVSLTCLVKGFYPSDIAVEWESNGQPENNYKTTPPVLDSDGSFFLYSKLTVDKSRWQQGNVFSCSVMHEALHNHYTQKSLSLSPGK

Row | mAb Binding (nm) | Binder
23 | 0.4 nm | B1
24 | 0.413 nm | B5
25 | 0.41 nm | B6

The binders below were run against T3, mouse TrkB.hFc (assay: BLI Octet, captured mTrkB.hFc saturated with BDNF, 300 nM mAb).
Experimental: as §3

Row | antibody Binding (nm) | Binder
26 | 0.06 nm | B1
27 | 0.38 nm | B5
28 | 0.44 nm | B6

Each binder was assayed against T2, human TrkB extracellular domain … (assay: BLI Octet, captured hTrkB.mFc saturated with hNT-4, 300 nM mAb).
Experimental: as §3

Row | antibody Binding (nm) | Binder
29 | 0.24 nm | B2
30 | 0.2 nm | B3
31 | 0.23 nm | B4

Each binder was assayed against T3, mouse TrkB.hFc (assay: BLI Octet, captured mTrkB.hFc saturated with mNT-4, 300 nM mAb).
Experimental: as §3

Row | antibody Binding (nm) | Binder
32 | 0.11 nm | B1
33 | 0.4 nm | B5
34 | 0.43 nm | B6
